The chains are these.
B1: SA301a HC-G97P (antibody, name in Kabat numbering, V domains shown)
VH: QVQLQESGPGLVKPSQTLSLTCTVSGYSITSDYNSHWIRQPPGKGLEWIGYIHYSGSTNYNPSLKSRVTISRDTSKNQFSLKLSSVTAADTAVYYCARNYPSIYVNYFDYWGQGTLVTVSS
VL: EIVLTQSPATLSLSPGERATLSCSASSSVSYMYWYQQKPGQAPRPLIYRTSNLASGIPARFSGSGSGTDFTLTISSLEPEDFAVYYCQQYHSYPTFGGGTKVEIK
notes: IgG1 kappa
B2: SA301a HC-G97T (antibody, name in Kabat numbering, V domains shown)
VH: QVQLQESGPGLVKPSQTLSLTCTVSGYSITSDYNSHWIRQPPGKGLEWIGYIHYSGSTNYNPSLKSRVTISRDTSKNQFSLKLSSVTAADTAVYYCARNYTSIYVNYFDYWGQGTLVTVSS
VL: EIVLTQSPATLSLSPGERATLSCSASSSVSYMYWYQQKPGQAPRPLIYRTSNLASGIPARFSGSGSGTDFTLTISSLEPEDFAVYYCQQYHSYPTFGGGTKVEIK
notes: IgG1 kappa
B3: SA301a HC-G97Q (antibody, name in Kabat numbering, V domains shown)
VH: QVQLQESGPGLVKPSQTLSLTCTVSGYSITSDYNSHWIRQPPGKGLEWIGYIHYSGSTNYNPSLKSRVTISRDTSKNQFSLKLSSVTAADTAVYYCARNYQSIYVNYFDYWGQGTLVTVSS
VL: EIVLTQSPATLSLSPGERATLSCSASSSVSYMYWYQQKPGQAPRPLIYRTSNLASGIPARFSGSGSGTDFTLTISSLEPEDFAVYYCQQYHSYPTFGGGTKVEIK
notes: IgG1 kappa
B4: SA301a HC-S98A (antibody, name in Kabat numbering, V domains shown)
VH: QVQLQESGPGLVKPSQTLSLTCTVSGYSITSDYNSHWIRQPPGKGLEWIGYIHYSGSTNYNPSLKSRVTISRDTSKNQFSLKLSSVTAADTAVYYCARNYGAIYVNYFDYWGQGTLVTVSS
VL: EIVLTQSPATLSLSPGERATLSCSASSSVSYMYWYQQKPGQAPRPLIYRTSNLASGIPARFSGSGSGTDFTLTISSLEPEDFAVYYCQQYHSYPTFGGGTKVEIK
notes: IgG1 kappa
B5: SA301a HC-N95G (antibody, name in Kabat numbering, V domains shown)
VH: QVQLQESGPGLVKPSQTLSLTCTVSGYSITSDYNSHWIRQPPGKGLEWIGYIHYSGSTNYNPSLKSRVTISRDTSKNQFSLKLSSVTAADTAVYYCARGYGSIYVNYFDYWGQGTLVTVSS
VL: EIVLTQSPATLSLSPGERATLSCSASSSVSYMYWYQQKPGQAPRPLIYRTSNLASGIPARFSGSGSGTDFTLTISSLEPEDFAVYYCQQYHSYPTFGGGTKVEIK
notes: IgG1 kappa
B6: SA301a HC-N95A (antibody, name in Kabat numbering, V domains shown)
VH: QVQLQESGPGLVKPSQTLSLTCTVSGYSITSDYNSHWIRQPPGKGLEWIGYIHYSGSTNYNPSLKSRVTISRDTSKNQFSLKLSSVTAADTAVYYCARAYGSIYVNYFDYWGQGTLVTVSS
VL: EIVLTQSPATLSLSPGERATLSCSASSSVSYMYWYQQKPGQAPRPLIYRTSNLASGIPARFSGSGSGTDFTLTISSLEPEDFAVYYCQQYHSYPTFGGGTKVEIK
notes: IgG1 kappa
B7: SA301a HC-S98H (antibody, name in Kabat numbering, V domains shown)
VH: QVQLQESGPGLVKPSQTLSLTCTVSGYSITSDYNSHWIRQPPGKGLEWIGYIHYSGSTNYNPSLKSRVTISRDTSKNQFSLKLSSVTAADTAVYYCARNYGHIYVNYFDYWGQGTLVTVSS
VL: EIVLTQSPATLSLSPGERATLSCSASSSVSYMYWYQQKPGQAPRPLIYRTSNLASGIPARFSGSGSGTDFTLTISSLEPEDFAVYYCQQYHSYPTFGGGTKVEIK
notes: IgG1 kappa
B8: SA301a HC-S98D (antibody, name in Kabat numbering, V domains shown)
VH: QVQLQESGPGLVKPSQTLSLTCTVSGYSITSDYNSHWIRQPPGKGLEWIGYIHYSGSTNYNPSLKSRVTISRDTSKNQFSLKLSSVTAADTAVYYCARNYGDIYVNYFDYWGQGTLVTVSS
VL: EIVLTQSPATLSLSPGERATLSCSASSSVSYMYWYQQKPGQAPRPLIYRTSNLASGIPARFSGSGSGTDFTLTISSLEPEDFAVYYCQQYHSYPTFGGGTKVEIK
notes: IgG1 kappa
B9: SA301a HC-S98K (antibody, name in Kabat numbering, V domains shown)
VH: QVQLQESGPGLVKPSQTLSLTCTVSGYSITSDYNSHWIRQPPGKGLEWIGYIHYSGSTNYNPSLKSRVTISRDTSKNQFSLKLSSVTAADTAVYYCARNYGKIYVNYFDYWGQGTLVTVSS
VL: EIVLTQSPATLSLSPGERATLSCSASSSVSYMYWYQQKPGQAPRPLIYRTSNLASGIPARFSGSGSGTDFTLTISSLEPEDFAVYYCQQYHSYPTFGGGTKVEIK
notes: IgG1 kappa
B10: SA301a HC-G97R (antibody, name in Kabat numbering, V domains shown)
VH: QVQLQESGPGLVKPSQTLSLTCTVSGYSITSDYNSHWIRQPPGKGLEWIGYIHYSGSTNYNPSLKSRVTISRDTSKNQFSLKLSSVTAADTAVYYCARNYRSIYVNYFDYWGQGTLVTVSS
VL: EIVLTQSPATLSLSPGERATLSCSASSSVSYMYWYQQKPGQAPRPLIYRTSNLASGIPARFSGSGSGTDFTLTISSLEPEDFAVYYCQQYHSYPTFGGGTKVEIK
notes: IgG1 kappa
B11: SA301a HC-S98G (antibody, name in Kabat numbering, V domains shown)
VH: QVQLQESGPGLVKPSQTLSLTCTVSGYSITSDYNSHWIRQPPGKGLEWIGYIHYSGSTNYNPSLKSRVTISRDTSKNQFSLKLSSVTAADTAVYYCARNYGGIYVNYFDYWGQGTLVTVSS
VL: EIVLTQSPATLSLSPGERATLSCSASSSVSYMYWYQQKPGQAPRPLIYRTSNLASGIPARFSGSGSGTDFTLTISSLEPEDFAVYYCQQYHSYPTFGGGTKVEIK
notes: IgG1 kappa
B12: SA301a HC-G97V (antibody, name in Kabat numbering, V domains shown)
VH: QVQLQESGPGLVKPSQTLSLTCTVSGYSITSDYNSHWIRQPPGKGLEWIGYIHYSGSTNYNPSLKSRVTISRDTSKNQFSLKLSSVTAADTAVYYCARNYVSIYVNYFDYWGQGTLVTVSS
VL: EIVLTQSPATLSLSPGERATLSCSASSSVSYMYWYQQKPGQAPRPLIYRTSNLASGIPARFSGSGSGTDFTLTISSLEPEDFAVYYCQQYHSYPTFGGGTKVEIK
notes: IgG1 kappa
B13: SA301a HC-N95R (antibody, name in Kabat numbering, V domains shown)
VH: QVQLQESGPGLVKPSQTLSLTCTVSGYSITSDYNSHWIRQPPGKGLEWIGYIHYSGSTNYNPSLKSRVTISRDTSKNQFSLKLSSVTAADTAVYYCARRYGSIYVNYFDYWGQGTLVTVSS
VL: EIVLTQSPATLSLSPGERATLSCSASSSVSYMYWYQQKPGQAPRPLIYRTSNLASGIPARFSGSGSGTDFTLTISSLEPEDFAVYYCQQYHSYPTFGGGTKVEIK
notes: IgG1 kappa
B14: SA301a HC-S98I (antibody, name in Kabat numbering, V domains shown)
VH: QVQLQESGPGLVKPSQTLSLTCTVSGYSITSDYNSHWIRQPPGKGLEWIGYIHYSGSTNYNPSLKSRVTISRDTSKNQFSLKLSSVTAADTAVYYCARNYGIIYVNYFDYWGQGTLVTVSS
VL: EIVLTQSPATLSLSPGERATLSCSASSSVSYMYWYQQKPGQAPRPLIYRTSNLASGIPARFSGSGSGTDFTLTISSLEPEDFAVYYCQQYHSYPTFGGGTKVEIK
notes: IgG1 kappa
B15: SA301a HC-N95Q (antibody, name in Kabat numbering, V domains shown)
VH: QVQLQESGPGLVKPSQTLSLTCTVSGYSITSDYNSHWIRQPPGKGLEWIGYIHYSGSTNYNPSLKSRVTISRDTSKNQFSLKLSSVTAADTAVYYCARQYGSIYVNYFDYWGQGTLVTVSS
VL: EIVLTQSPATLSLSPGERATLSCSASSSVSYMYWYQQKPGQAPRPLIYRTSNLASGIPARFSGSGSGTDFTLTISSLEPEDFAVYYCQQYHSYPTFGGGTKVEIK
notes: IgG1 kappa

Here are results for 15 molecules from patent US20250368745A1 (published 2025).

This assay concerns the target T1, human IL-18BP (human, UniProt O95998 31-194).
T1 construct: UniProt printed as 095998; also called hIL-18BP
T1 sequence: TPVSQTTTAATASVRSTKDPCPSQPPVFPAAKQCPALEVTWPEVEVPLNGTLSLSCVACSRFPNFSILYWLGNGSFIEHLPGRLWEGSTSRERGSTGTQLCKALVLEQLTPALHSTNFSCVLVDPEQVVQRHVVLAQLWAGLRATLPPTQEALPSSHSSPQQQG
The experiment in a line: BLI, apparent KD.
Consider B1, for which the Kd is 1.36 nM.
The result for B2 reads 0.01 nM.
The value for B3 was 7.04 nM.
The result for B4 reads 2.29 nM; that for B5, 0.17 nM; that for B6, 46.1 nM.
In the case of B7, the Kd was 6.42 nM.
The value for B8 was 0.99 nM.
As for B9, the Kd stood at 5.41 nM.
The result for B10 reads 25.1 nM; that for B11, 2.57 nM; that for B12, 4.96 nM.
With B13, the Kd came out at 0.02 nM.
The result for B14 reads 2.1 nM.
The value for B15 was 5.33 nM.
